Reference: publication PMC5027613, “A second DNA binding site in human BRCA2 promotes homologous recombination”

Columns and labels:
BRCA2T1 [1] = target: T1, BRCA2T1 (human, UniProt P51587 1-250); experiment: EMSA; up to 300 nM; EMSA: 25 mM Tris acetate pH 7.5, 1 mM DTT, 1 mM MgCl2, 2 mM CaCl2, 0.2 uM nucleotides DNA, 1 h at 37 C; 6% native PAGE in 1x TAE; conditions: protein: recombinant; tags: N-terminal 2xMBP, 2 NLS; label: 5'-32P
T1 sequence: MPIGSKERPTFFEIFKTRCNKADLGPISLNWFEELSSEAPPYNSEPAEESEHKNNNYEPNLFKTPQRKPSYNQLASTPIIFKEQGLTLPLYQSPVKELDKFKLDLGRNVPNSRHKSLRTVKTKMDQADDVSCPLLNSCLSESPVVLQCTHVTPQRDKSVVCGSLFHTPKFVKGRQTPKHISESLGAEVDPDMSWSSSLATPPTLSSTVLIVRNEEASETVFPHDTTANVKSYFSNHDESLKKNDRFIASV

BRCA2 CTD;DSS1 [2] = target: T2, BRCA2 CTD;DSS1 (human;human?, UniProt P51587;P60896 2474-3190;1-70, |); experiment: EMSA; lower yield than BRCA2T2; EMSA: 25 mM Tris acetate pH 7.5, 1 mM DTT, 1 mM MgCl2, 2 mM CaCl2, 0.2 uM nucleotides DNA, 1 h at 37 C; 6% native PAGE in 1x TAE; conditions: protein: recombinant;recombinant, tags: 6xHis-SUMO;, copies: 1;1
BRCA2T2 (NTD) [3] = target: T3, BRCA2T2 (NTD) (human, UniProt P51587 251-500); experiment: EMSA; yield similar to dsDNA (~40%) at 1.5 uM; EMSA: 25 mM Tris acetate pH 7.5, 1 mM DTT, 1 mM MgCl2, 2 mM CaCl2, 0.2 uM nucleotides DNA, 1 h at 37 C; 6% native PAGE in 1x TAE; conditions: protein: recombinant; tags: N-terminal 2xMBP, 2 NLS; label: 5'-32P
T3 sequence: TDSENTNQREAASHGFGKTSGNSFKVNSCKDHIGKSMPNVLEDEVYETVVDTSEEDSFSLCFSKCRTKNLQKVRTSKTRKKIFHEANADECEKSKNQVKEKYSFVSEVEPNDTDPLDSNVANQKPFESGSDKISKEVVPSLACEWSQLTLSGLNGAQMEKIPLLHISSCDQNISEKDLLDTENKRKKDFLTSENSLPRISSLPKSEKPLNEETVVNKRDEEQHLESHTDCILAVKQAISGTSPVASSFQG

BRCA2 full length = BRCA2 full length (human, UniProt P51587 1-3418); experiment: EMSA; ~100 times lower concentration needed than BRCA2T2; EMSA: 25 mM Tris acetate pH 7.5, 1 mM DTT, 1 mM MgCl2, 2 mM CaCl2, 0.2 uM nucleotides DNA, 1 h at 37 C; 6% native PAGE in 1x TAE; conditions: protein: recombinant; tags: N-terminal EGFP-MBP; label: 5'-32P
BRCA2T2 (NTD) [4] = target: T3, BRCA2T2 (NTD); experiment: EMSA; higher yield than CTD; EMSA: 25 mM Tris acetate pH 7.5, 1 mM DTT, 1 mM MgCl2, 2 mM CaCl2, 0.2 uM nucleotides DNA, 1 h at 37 C; 6% native PAGE in 1x TAE; conditions: protein: recombinant, tags: N-terminal 2xMBP, 2 NLS
BRCA2 CTD;DSS1 [5] = target: T2, BRCA2 CTD;DSS1; experiment: EMSA; ~40-fold lower yield than BRCA2T2 at 1 uM; EMSA: 25 mM Tris acetate pH 7.5, 1 mM DTT, 1 mM MgCl2, 2 mM CaCl2, 0.2 uM nucleotides DNA, 1 h at 37 C; 6% native PAGE in 1x TAE; conditions: protein: recombinant;recombinant; tags: 6xHis-SUMO;; copies: 1;1; label: 32P; 1:2 1:3, two 42 bp duplexes with 83 nt gap
BRCA2T2 (NTD) [6] = target: T3, BRCA2T2 (NTD); experiment: EMSA; EMSA: 25 mM Tris acetate pH 7.5, 1 mM DTT, 1 mM MgCl2, 2 mM CaCl2, 0.2 uM nucleotides DNA, 1 h at 37 C; 6% native PAGE in 1x TAE; conditions: protein: recombinant; tags: N-terminal 2xMBP, 2 NLS; label: 32P; 1:2 1:3, two 42 bp duplexes with 83 nt gap
BRCA2 CTD;DSS1 [7] = target: T2, BRCA2 CTD;DSS1; experiment: as above; conditions: protein: recombinant;recombinant; tags: 6xHis-SUMO;; copies: 1;1; label: 5'-32P on oAC405; blunt
BRCA2T2 (NTD) [8] = target: T3, BRCA2T2 (NTD); experiment: pull-down; titrated out by excess free dT40; EMSA: 25 mM Tris acetate pH 7.5, 1 mM DTT, 1 mM MgCl2, 2 mM CaCl2, 0.2 uM nucleotides DNA, 1 h at 37 C; 6% native PAGE in 1x TAE; conditions: protein: recombinant; tags: N-terminal 2xMBP, 2 NLS; label: biotin, on streptavidin beads
BRCA2T1 [9] = target: T1, BRCA2T1; experiment: pull-down; not titrated out by free dT40; EMSA: 25 mM Tris acetate pH 7.5, 1 mM DTT, 1 mM MgCl2, 2 mM CaCl2, 0.2 uM nucleotides DNA, 1 h at 37 C; 6% native PAGE in 1x TAE; conditions: protein: recombinant; tags: N-terminal 2xMBP, 2 NLS; label: biotin, on streptavidin beads

TTTTTTTTTTTTTTTTTTTTTTTTTTTTTTTTTTTTTTTT (ssDNA) [dT40 (oAC379)]: no binding (BRCA2T1 [1]).

B1: 167mer ssDNA (oAC423) (ssDNA)
DNA: CTGCTTTATCAAGATAATTTTTCGACTCATCAGAAATATCCGTTTCCTATATTTATTCCTATTATGTTTTATTCATTTACTTATTCTTTATGTTCATTTTTTATATCCTTTACTTTATTTTCTCTGTTTATTCATTTACTTATTTTGTATTATCCTTATCTTATTTA
B1: binds (BRCA2 CTD;DSS1 [2]; label: 5'-32P); binds (BRCA2T2 (NTD) [3]); binds (BRCA2 full length).

B2: 3' overhang (oAC423 + oAC490 as stated) (mixed)
DNA 1: B1 DNA
DNA 2: TAAATAAGATAAGGATAATACAAAATAAGTAAATGAATAAAC
B2: binds (BRCA2 CTD;DSS1 [2]; label: 32P on oAC490); binds (BRCA2T2 (NTD) [4]; label: 32P on oAC490).

B3: gapped DNA (oAC423 + oAC403 + oAC490) (mixed)
DNA 1: B1 DNA
DNA 2: CGGATATTTCTGATGAGTCGAAAAATTATCTTGATAAAGCAG
DNA 3: B2 DNA 2
In the case of B3, the binding result (BRCA2 CTD;DSS1 [5]) is reported as “binds” and the binding signal (BRCA2T2 (NTD) [6]) is reported as ~40 fold higher yield than CTD at 1 uM.

B4: 5' overhang (oAC423 + oAC403 as stated) (mixed)
DNA 1: B1 DNA
DNA 2: B3 DNA 2
B4: binds (BRCA2 CTD;DSS1 [2]; label: 32P); binds (BRCA2T2 (NTD) [4]; label: 32P).

B5: 40 bp dsDNA (oAC405/oAC406) (dsDNA)
DNA 1: TAATACAAAATAAGTAAATGAATAAACAGAGAAAATAAAG
DNA 2: CTTTATTTTCTCTGTTTATTCATTTACTTATTTTGTATTA
B5: no binding (BRCA2 CTD;DSS1 [7]).

B6: dT80 biotin (ssDNA)
DNA: TTTTTTTTTTTTTTTTTTTTTTTTTTTTTTTTTTTTTTTTTTTTTTTTTTTTTTTTTTTTTTTTTTTTTTTTTTTTTTTT
modifications: 3'-biotin
B6: binds (BRCA2T2 (NTD) [8]); no binding (BRCA2T1 [9]).
